Laboratory results from PMC6269467.

Tests used:
[1] = biological target: αE-catenin actin-binding domain, wild type (αEcat-ABD-WT) (mouse) (UniProt P26231); test: SEC-MALS; elution profiles at 3 mg/ml to 30 mg/ml; MALS of the dimer peak at 30 mg/ml; dimer to monomers; Superdex-200 Increase 10/300 GL; 20 mM Tris-HCl pH 7.0, 100 mM NaCl
[2] = biological target: αN-catenin actin-binding domain with the helix-1 mutation (αNcat-ABD-H1) (mouse) (UniProt Q61301); test: crystal structure; αNcat-ABD-H1 crystals in forms A (2.2 Å) and B (2.8 Å), grown at 277 K by vapor diffusion; molecular replacement with PDB 4K1O

Row | Substance | stoichiometry N [1] | stoichiometry N [2]
1 | αE-catenin actin-binding domain, wild type (αEcat-ABD-WT) (from UniProt P26231 652-906) (domain or fragment) | 2 | –
2 | αN-catenin actin-binding domain with the helix-1 mutation (αNcat-ABD-H1) (from UniProt Q61301-2 651-905) (domain or fragment) | – | 2
